Data on two molecules can be found in patent publication US20170059578A1 (ROCHE SEQUENCING SOLUTIONS, published 2017).

This test has as its target T1, streptavidin (UniProt P22629 37-163, limits assumed).
T1 construct: Applied in solution to the peptide array and detected by fluorescence; also called streptavidin receptor; receptor
Nature of the test: peptide array, fluorescence signal of bound streptavidin.

T1 sequence (P22629 37-163 limits assumed): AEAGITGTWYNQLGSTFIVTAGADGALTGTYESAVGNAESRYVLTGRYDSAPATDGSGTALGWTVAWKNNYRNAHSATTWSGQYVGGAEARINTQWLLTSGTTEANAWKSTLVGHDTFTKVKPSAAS

B1: … (SEQ ID NO:1) with deletion of the His at the 10th position from the N-terminus (peptide)
peptide: GFEDYLGEYG
notes: Deletion made by design ([-]) or imitated by synthesis conditions [1]; (solvent alone) and [2]; (no reagent); also called His deletion peptide; synthesis conditions [1] and [2]
Regarding B1, the binding result is on record as “no binding”.

B2: … (SEQ ID NO:2) with deletion of the Met at the 6th position from the N-terminus (peptide)
peptide: GWTHPFEQKG
notes: Deletion made by design ([-]) or imitated by synthesis conditions [1]; (solvent alone) and [2]; (no reagent); also called deletion control peptide; synthesis conditions [1] and [2]
In the case of B2, the binding result was “no binding”.
